Source: the supplement of paper PMC9233669
Variants at the floor of the assay were thinned out.

Legend:
biotinyl-Val-oxazolone = test: self-aminoacylation, catalytic enhancement (BVO) (fold over background); higher = more active; k-Seq, kA / k0A0; sequences stand for … in GGGAAUGGAUCCACAUCUACGAAUUC…UUCACUGCAGACUUGACGAAGCUG
Procedure, shortened: (§1)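 Mutagenized RNA pools (0.43 μM; 21-nt variable region) were treated with 2–1250 μM of each biotinyl-aminoacyl-oxazolone. Conditions were 50 μL HEPES/NaCl/KCl/MgCl2/CaCl2 buffer, 5% acetonitrile, pH 6.9–7.0, room temperature, 90 minutes. Catalytic enhancement, the median kA relative to the uncatalyzed rate, was derived from streptavidin capture, qPCR and Illumina sequencing.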

biotinyl-Phe-oxazolone = test: self-aminoacylation, catalytic enhancement (BFO) (fold over background); higher = more active; k-Seq, kA / k0A0; sequences stand for … in GGGAAUGGAUCCACAUCUACGAAUUC…UUCACUGCAGACUUGACGAAGCUG
Procedure, shortened: as §1

biotinyl-Met-oxazolone = test: self-aminoacylation, catalytic enhancement (BMO) (fold over background); higher = more active; k-Seq, kA / k0A0; sequences stand for … in GGGAAUGGAUCCACAUCUACGAAUUC…UUCACUGCAGACUUGACGAAGCUG
Procedure, shortened: as §1

biotinyl-Ile-oxazolone = test: self-aminoacylation, catalytic enhancement (BIO) (fold over background); higher = more active; k-Seq, kA / k0A0; sequences stand for … in GGGAAUGGAUCCACAUCUACGAAUUC…UUCACUGCAGACUUGACGAAGCUG
Procedure, shortened: as §1

biotinyl-Leu-oxazolone = test: self-aminoacylation, catalytic enhancement (BLO) (fold over background); higher = more active; k-Seq, kA / k0A0; sequences stand for … in GGGAAUGGAUCCACAUCUACGAAUUC…UUCACUGCAGACUUGACGAAGCUG
Procedure, shortened: as §1

biotinyl-Trp-oxazolone = test: self-aminoacylation, catalytic enhancement (BWO) (fold over background); higher = more active; k-Seq, kA / k0A0; sequences stand for … in GGGAAUGGAUCCACAUCUACGAAUUC…UUCACUGCAGACUUGACGAAGCUG
Procedure, shortened: as §1

Sequence	self-aminoacylation (biotinyl-Val-oxazolone)	self-aminoacylation (biotinyl-Phe-oxazolone)	self-aminoacylation (biotinyl-Met-oxazolone)	self-aminoacylation (biotinyl-Ile-oxazolone)	self-aminoacylation (biotinyl-Leu-oxazolone)	self-aminoacylation (biotinyl-Trp-oxazolone)
AUUCACCUCGGUCAUCGGUUG [Fam2.2 aminoacylation ribozyme variant]	1.07	5.88	1.07	0.923	1.25	0.911
AUUCACCUCGGUCUUCGGGUG [Fam2.2 aminoacylation ribozyme variant]	4.01	33	3.71	3.77	6.72	4.87
AUUCACCUGGAUCAUCGGGUG [Fam2.2 aminoacylation ribozyme variant]	3.08	15.1	2.39	2.55	3.12	3.31
AUUCACCUGGGUAAUCGGGUG [Fam2.2 aminoacylation ribozyme variant]	2.88	30.1	4.71	3.15	5.16	4.84
AUUCACCUGGGUCAUCCGGUG [Fam2.2 aminoacylation ribozyme variant]	7.4	75.6	11.2	7.06	13.3	9.13
AUUCACCUGGGUCAUCGGGAG [Fam2.2 aminoacylation ribozyme variant]	1.62	7.65	1.86	1.65	1.51	2.29
AUUCACCUUGAUCAUCGGGUG [Fam2.2 aminoacylation ribozyme variant]	2.6	19	3.26	2.22	3.83	4.07
AUUCACCUUGGACAUCGGGUG [Fam2.2 aminoacylation ribozyme variant]	3.24	17.1	3.51	2.51	3.37	2.97
AUUCACCUUGGCCAUCGGGUG [Fam2.2 aminoacylation ribozyme variant]	3.88	31.6	4.02	2.9	4.98	4.95
AUUCACCUUGGUCAUCGAGUG [Fam2.2 aminoacylation ribozyme variant]	2.49	8.55	3.96	2.69	4.66	3.59
AUUCACGUAGCUCAUCGGGUG [Fam2.2 aminoacylation ribozyme variant]	3.52	17.7	3.44	2.24	2.42	2.88
AUUCACGUAGGUCAUAGGGUG [Fam2.2 aminoacylation ribozyme variant]	1.92	2.23	2.17	1.67	2.36	1.97
AUUCACGUAGGUCAUCGCGUG [Fam2.2 aminoacylation ribozyme variant]	9.95	119	16	7.52	15.8	11.1
AUUCACGUAGGUCAUCGGGUA [Fam2.2 aminoacylation ribozyme variant]	3.72	21	3.16	2.9	2.95	3.66
AUUCACGUAGGUCAUCGGGUU [Fam2.2 aminoacylation ribozyme variant]	2.74	14.9	2.4	2.03	2.54	2.93
AUUCACGUAGGUCAUCUGGUG [Fam2.2 aminoacylation ribozyme variant]	3.61	31.2	5.3	3.05	5.52	4.82
AUUCACUAAGGUCAUCGGGUG [Fam2.2 aminoacylation ribozyme variant]	3.66	37.7	5.33	3.57	6.72	5.99
AUUCACUGAGGUCAUCGGGUG [Fam2.2 aminoacylation ribozyme variant]	4.37	55.7	7.22	4.51	9.09	5.64
AUUCACUUAGGUCAACGGGUG [Fam2.2 aminoacylation ribozyme variant]	2.26	21.2	3.84	2.52	4.92	3.53
AUUCACUUAGGUCAUCUGGUG [Fam2.2 aminoacylation ribozyme variant]	2.1	12.6	3.11	2.06	3.65	3.19
AUUCACUUAGGUCAUGGGGUG [Fam2.2 aminoacylation ribozyme variant]	3.31	46.2	5.58	3.61	7.09	5.74
AUUCACUUAGGUCAUUGGGUG [Fam2.2 aminoacylation ribozyme variant]	2.39	25.2	3.64	2.3	4.48	3.76
AUUCAGAUAGGUCAUCGGGUG [Fam2.2 aminoacylation ribozyme variant]	3.77	49.6	6.75	4.19	7.3	5.8
AUUCAGCAAGGUCAUCGGGUG [Fam2.2 aminoacylation ribozyme variant]	4.9	47.9	6.23	4.51	7.63	7
AUUCAGCUAGGUAAUCGGGUG [Fam2.2 aminoacylation ribozyme variant]	2.65	23.8	4.03	2.69	4.57	4.43
AUUCAGCUAGGUCAUAGGGUG [Fam2.2 aminoacylation ribozyme variant]	1.23	1.15	1.09	0.975	1.24	1.17
